Results published in US20250188176A1 (INVETX, published 2025).

T1: Extracellular domain (ECD) of the canine IL-4 receptor alpha-AviTag-His Tag (canine)
T1 construct: expressed in CHO cells; also called canine IL-4RA; canine IL4Ra
T1 chain: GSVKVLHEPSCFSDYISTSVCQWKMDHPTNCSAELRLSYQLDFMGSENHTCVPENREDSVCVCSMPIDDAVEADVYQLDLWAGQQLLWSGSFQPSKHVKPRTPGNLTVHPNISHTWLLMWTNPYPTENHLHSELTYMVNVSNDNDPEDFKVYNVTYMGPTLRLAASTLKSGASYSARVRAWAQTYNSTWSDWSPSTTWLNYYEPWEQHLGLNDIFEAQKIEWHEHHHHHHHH

T2: Extracellular domain (ECD) of the canine IL-4 receptor alpha-V5 epitope-AviTag-His Tag (canine)
T2 construct: monomeric form isolated by size exclusion; also called canine IL-4RA-V5-Avi-His; canine IL-4RA
T2 chain: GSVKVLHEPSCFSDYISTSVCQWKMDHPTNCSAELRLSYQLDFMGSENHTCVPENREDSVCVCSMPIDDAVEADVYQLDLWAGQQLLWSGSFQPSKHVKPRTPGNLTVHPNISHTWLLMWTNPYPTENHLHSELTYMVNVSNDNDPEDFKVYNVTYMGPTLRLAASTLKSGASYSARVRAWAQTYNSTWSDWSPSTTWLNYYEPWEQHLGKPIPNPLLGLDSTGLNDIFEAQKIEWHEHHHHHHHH


Molecular target: T1, Extracellular domain (ECD) of the …
Assay: SPR, IgG captured via anti-dog Fc
Experimental: (§1) Both the heavy and light chain variants were evaluated for their binding kinetics to canine IL-4RA using SPR on a Biacore T200. The antibodies were captured using a CM5 Series S chip amine coupled with an anti-dog Fc antibody (Jackson Immunoresearch). […] The length of the association time was 120 s and the dissociation time was run for 600 s. The chip surface was regenerated with 10 mM glycine. Double reference-subtracted sensorgrams were fitted to a 1:1 binding model using Biacore T200 Evaluation software.

| Binder | Kd | koff | kon |
| --- | --- | --- | --- |
| Gfmix_PTH-H + 21188-L (antibody, V domains shown) VH: EVQLVESGGDLVKPGGSLRLSCVASGFPFRDYAMTWVRQAPGKGLQWLSLISGSGGKTYYADAVKGRFTISRDNAKNTLYLQMNSLRAEDTAVYYCAVDRLTKTIRPQYYGLWHWGQGTLVTVSS VL: DIVMTQTPLSLSVSPGETASISCRSSQSLTYSIGYNYLDWYMQKPGQSPQGLIYLGSKRASGVSDRFSGSGSGADFTLKISRVEADDAGVYYCMQGLQSPLGFGQGTKLEIKR | 0.381 nM | 9.71e-05 s⁻¹ | 255000 M⁻¹ s⁻¹ |
| FJP07H09-H + 21188-L (antibody, V domains shown) VH: EVQLVESGGDLVKPGGSLRLSCVASGFTFRDYAMDWVRQAPGKGLQWLSLISGSGGKTYYADAVKGRFTISRDNAKNTLYLQMNSLRAEDTAVYYCAVDRLTKTIRPQYYGLWSWGQGTLVTVSS VL: DIVMTQTPLSLSVSPGETASISCRSSQSLTYSIGYNYLDWYMQKPGQSPQGLIYLGSKRASGVSDRFSGSGSGADFTLKISRVEADDAGVYYCMQGLQSPLGFGQGTKLEIKR | 1.07 nM | 0.000253 s⁻¹ | 236000 M⁻¹ s⁻¹ |
| Fjmix_PS-H + 21188-L (antibody, V domains shown) VH: EVQLVESGGDLVKPGGSLRLSCVASGFPFRDYAMDWVRQAPGKGLQWLSLISGSGGKTYYADAVKGRFTISRDNAKNTLYLQMNSLRAEDTAVYYCAVDRLTKTIRPQYYGLWSWGQGTLVTVSS VL: DIVMTQTPLSLSVSPGETASISCRSSQSLTYSIGYNYLDWYMQKPGQSPQGLIYLGSKRASGVSDRFSGSGSGADFTLKISRVEADDAGVYYCMQGLQSPLGFGQGTKLEIKR | 0.878 nM | 0.000206 s⁻¹ | 235000 M⁻¹ s⁻¹ |
| FJP05A03-H + 21188-L (antibody, V domains shown) VH: EVQLVESGGDLVKPGGSLRLSCVASGLPFRDYAMAWVRQAPGKGLQWLSLISGSGGKTYYADAVKGRFTISRDNAKNTLYLQMNSLRAEDTAVYYCAVDRLTKTIRPQYYGLWVWGQGTLVTVSS VL: DIVMTQTPLSLSVSPGETASISCRSSQSLTYSIGYNYLDWYMQKPGQSPQGLIYLGSKRASGVSDRFSGSGSGADFTLKISRVEADDAGVYYCMQGLQSPLGFGQGTKLEIKR | 0.377 nM | 0.000105 s⁻¹ | 279000 M⁻¹ s⁻¹ |
| FJP06D01-H + 21188-L (antibody, V domains shown) VH: EVQLVESGGDLVKPGGSLRLSCVASGFPFRDYAMDWVRQAPGKGLQWLSLISGSGGKTYYADAVKGRFTISRDNAKNTLYLQMNSLRAEDTAVYYCAVDRLTKTIRPQYYGLWVWGQGTLVTVSS VL: DIVMTQTPLSLSVSPGETASISCRSSQSLTYSIGYNYLDWYMQKPGQSPQGLIYLGSKRASGVSDRFSGSGSGADFTLKISRVEADDAGVYYCMQGLQSPLGFGQGTKLEIKR | 0.908 nM | 0.000208 s⁻¹ | 230000 M⁻¹ s⁻¹ |

Molecular target: T1, Extracellular domain (ECD) of the …
Assay: SPR, IgG captured via anti-dog H+L
Experimental: Affinities were determined by SPR on a Biacore T200. The antibodies were captured using a CM5 Series S chip amine coupled with an anti-dog H+L antibody (Jackson Immunoresearch). Antigen, canine IL-4RA (EQ ID NO:2), binding was then assessed at multiple concentrations starting at 100 nM using PBSP+ running buffer (Cytiva) with a flow rate of 30 μL/min. […] The length of the association time was 120 s and the dissociation time was run for 600 s. The chip surface was regenerated with 10 mM glycine.

| Binder | Kd | koff | kon |
| --- | --- | --- | --- |
| TB640_057 (antibody, V domains shown, caninized IgG) VH: EVQLVESGGDLVKPGGSLRLSCVASGFTFRDYAMTWVRQAPGKGLQWVSTITGSGGNTYYADAVKGRFTISRDNAKNTLYLQMNSLRAEDTAVYYCAKDRLSITIRPRYYGLDVWGQGTLVTVSS VL: DIVMTQTPLSLSVSPGETASISCRASQSLLYSIGYNYLDWYLQKPGQSPQGLIYLGSKRASGVPDRFSGSGSGTDFTLRISRVEANDTGVYYCMQAIQAPYTFGQGTKLEIKR | 5.54 nM | 0.00107 s⁻¹ | 194000 M⁻¹ s⁻¹ |
| TB640_109 (antibody, V domains shown, caninized IgG) VH: EVQLVESGGDLVKPGGSLRLSCVASGFTFRDYAMTWVRQAPGKGLQWVSTISGSGGKTYYADAVKGRFTISRDNAKNTLYLQMNSLRAEDTAVYYCAVDRLTKTIRPQYYGLSVWGQGTLVTVSS VL: DIVMTQTPLSLSVSPGETASISCRASQSLLYSIGYNYLDWYLQKPGQSPQGLIYLGSKRASGVPDRFSGSGSGTDFTLRISRVEANDTGVYYCMQALRDPYTFGQGTKLEIKR | 6.06 nM | 0.00136 s⁻¹ | 225000 M⁻¹ s⁻¹ |

Molecular target: T2, Extracellular domain (ECD) of the …
Assay: SPR, Fab-SASA captured on BSA;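 further: biacore T200 SPR, Fab-SASA variants from E. coli conditioned medium captured on BSA-coated CM5 chip, canine IL-4RA injected 120 s then 420 s dissociation, 1:1 model fit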
Experimental: Forty-four PML clones were selected from each library for expression in E. coli in 96 deep-well plates by inoculating into 2YT medium and inducing with 0.2 mM IPTG overnight at room temperature. The Fab secreted in the medium was analyzed for binding activity by completing an ELISA. […] The 39 unique clones were confirmed by an off-rate screening assay in an SPR assay performed on a Biacore T200. For the SPR analyses, bovine serum albumin (BSA) was immobilized to CM5 sensor chip. The sensor chip surface was activated with 50 mmol/L H-Hydroxysuccinimide and 200 mmol/L 1-ethyl-3-(3-dimethylaminopropyl) carbodiimide hydrochloride for 420 s. Afterwards, BSA diluted in 10 mM sodium acetate, pH 4.5 was injected. After the amine coupling reaction, the remaining active coupling sites on the chip surface were blocked with 1 mM ethanolamine hydrochloride. The selected Fab-SASA variants in conditioned medium were captured on the BSA-coated chips. The running buffer was HBS-EP (10 mM HEPES 500 mM NaCl, 3 mM EDTA, 0.05% Tween 20, pH 7.4). After equilibration, canine IL-4RA was injected for 120 seconds (association phase) followed by the injection of running buffer for 420 sec (dissociation phase). The off-rates of the Fab-SASA clones were obtained from fitting the experimental data locally to a 1:1 interaction model using the Biacore T200 evaluation software.

| Binder | Kd | Ratio WT-kd/clone-kd | koff | kon |
| --- | --- | --- | --- | --- |
| TB640_005 Fab-SASA VL-Y35M (Fab, V domains shown, not shown: SASA tag then His-tag) VH: EVQLVESGGDLVKPGGSLRLSCVASGFTFRDYAMTWVRQAPGKGLQWVSLISGSGGKTYYADAVKGRFTISRDNAKNTLYLQMNSLRAEDTAVYYCAVDRLTKTIRPQYYGLWVWGQGTLVTVSS VL: DIVMTQTPLSLSVSPGETASISCRSSQSLLYSIGMNYLDWYLQKPGQSPQGLIYLGSKRASGVPDRFSGSGSGTDFTLRISRVEANDTGVYYCMQGLQSPLTFGQGTKLEIKR | 8.34 nM | 1.02 | 0.000932 s⁻¹ | 112000 M⁻¹ s⁻¹ |

Molecular target: T1, Extracellular domain (ECD) of the …
Assay: SPR, IgG captured via anti-dog Fc
Remark: another data set of the same source
Experimental: as §1

| Binder | Kd | koff | kon |
| --- | --- | --- | --- |
| 21188-H + FJP10A09-L (antibody, V domains shown) VH: EVQLVESGGDLVKPGGSLRLSCVASGFTFRDYAMTWVRQAPGKGLQWLSLISGSGGKTYYADAVKGRFTISRDNAKNTLYLQMNSLRAEDTAVYYCAVDRLTKTIRPQYYGLWHWGQGTLVTVSS VL: DIVMTQTPLSLSVSPGETASISCRSSQSLTYSIGYNYLDWYMQKPGQSPQGLIYLGSKRASGVSDRFSGSGSGADFTLKISRVEADDAGVYYCMQGLHSPLSFGQGTKLEIKR | 0.143 nM | 4.62e-05 s⁻¹ | 324000 M⁻¹ s⁻¹ |
| 21188-H + GFmix_THS-L (antibody, V domains shown) VH: EVQLVESGGDLVKPGGSLRLSCVASGFTFRDYAMTWVRQAPGKGLQWLSLISGSGGKTYYADAVKGRFTISRDNAKNTLYLQMNSLRAEDTAVYYCAVDRLTKTIRPQYYGLWHWGQGTLVTVSS VL: DIVMTQTPLSLSVSPGETASISCRSSQSLTYSIGYNYLDWYMQKPGQSPQGLIYLGSKRASGVSDRFSGSGSGADFTLKISRVEADDAGVYYCMQGLHSPLGFGQGTKLEIKR | 0.162 nM | 5.78e-05 s⁻¹ | 357000 M⁻¹ s⁻¹ |
| 21188-H + GFmix2_KTHG-L (antibody, V domains shown) VH: EVQLVESGGDLVKPGGSLRLSCVASGFTFRDYAMTWVRQAPGKGLQWLSLISGSGGKTYYADAVKGRFTISRDNAKNTLYLQMNSLRAEDTAVYYCAVDRLTKTIRPQYYGLWHWGQGTLVTVSS VL: DIVMTQTPLSLSVSPGETASISCRSSKSLTYSIGYNYLDWYMQKPGQSPQGLIYLGSKRASGVSDRFSGSGSGADFTLKISRVEADDAGVYYCMQGLHSPLGFGQGTKLEIKR | 0.168 nM | 5.92e-05 s⁻¹ | 354000 M⁻¹ s⁻¹ |
| 21188-H + GFmix3_KTHS-L (antibody, V domains shown) VH: EVQLVESGGDLVKPGGSLRLSCVASGFTFRDYAMTWVRQAPGKGLQWLSLISGSGGKTYYADAVKGRFTISRDNAKNTLYLQMNSLRAEDTAVYYCAVDRLTKTIRPQYYGLWHWGQGTLVTVSS VL: DIVMTQTPLSLSVSPGETASISCRSSKSLTYSIGYNYLDWYMQKPGQSPQGLIYLGSKRASGVSDRFSGSGSGADFTLKISRVEADDAGVYYCMQGLHSPLSFGQGTKLEIKR | 0.144 nM | 4.79e-05 s⁻¹ | 333000 M⁻¹ s⁻¹ |
| 21188-H + FJP10F04-L (antibody, V domains shown) VH: EVQLVESGGDLVKPGGSLRLSCVASGFTFRDYAMTWVRQAPGKGLQWLSLISGSGGKTYYADAVKGRFTISRDNAKNTLYLQMNSLRAEDTAVYYCAVDRLTKTIRPQYYGLWHWGQGTLVTVSS VL: DIVMTQTPLSLSVSPGETASISCRSSKSLLYSIGYNYLDWYMQKPGQSPQGLIYLGSKRASGVSDRFSGSGSGADFTLKISRVEADDAGVYYCMQGLHSPLTFGQGTKLEIKR | 0.238 nM | 6.81e-05 s⁻¹ | 286000 M⁻¹ s⁻¹ |

Molecular target: T1, Extracellular domain (ECD) of the …
Assay: SPR, IgG captured via anti-dog Fc
Remark: another data set of the same source
Experimental: as §1
Six different combinations of heavy and light chain variants (Table 30) were co-transfected and produced as described above. The binding kinetics of the heavy and light chain variants to canine IL-4RA was determined using the SPR methods described above.

| Binder | Kd | koff | kon |
| --- | --- | --- | --- |
| GFmix_PTH-H + FJP10A09-L (antibody, V domains shown) VH: EVQLVESGGDLVKPGGSLRLSCVASGFPFRDYAMTWVRQAPGKGLQWLSLISGSGGKTYYADAVKGRFTISRDNAKNTLYLQMNSLRAEDTAVYYCAVDRLTKTIRPQYYGLWHWGQGTLVTVSS VL: DIVMTQTPLSLSVSPGETASISCRSSQSLTYSIGYNYLDWYMQKPGQSPQGLIYLGSKRASGVSDRFSGSGSGADFTLKISRVEADDAGVYYCMQGLHSPLSFGQGTKLEIKR | 0.167 nM | 7e-05 s⁻¹ | 419000 M⁻¹ s⁻¹ |
| FJP05A03-H + FJP10A09-L (antibody, V domains shown) VH: EVQLVESGGDLVKPGGSLRLSCVASGLPFRDYAMAWVRQAPGKGLQWLSLISGSGGKTYYADAVKGRFTISRDNAKNTLYLQMNSLRAEDTAVYYCAVDRLTKTIRPQYYGLWVWGQGTLVTVSS VL: DIVMTQTPLSLSVSPGETASISCRSSQSLTYSIGYNYLDWYMQKPGQSPQGLIYLGSKRASGVSDRFSGSGSGADFTLKISRVEADDAGVYYCMQGLHSPLSFGQGTKLEIKR | 0.201 nM | 8.87e-05 s⁻¹ | 442000 M⁻¹ s⁻¹ |
| FJP05A03-H + GFmix3_KTHS-L (antibody, V domains shown) VH: EVQLVESGGDLVKPGGSLRLSCVASGLPFRDYAMAWVRQAPGKGLQWLSLISGSGGKTYYADAVKGRFTISRDNAKNTLYLQMNSLRAEDTAVYYCAVDRLTKTIRPQYYGLWVWGQGTLVTVSS VL: DIVMTQTPLSLSVSPGETASISCRSSKSLTYSIGYNYLDWYMQKPGQSPQGLIYLGSKRASGVSDRFSGSGSGADFTLKISRVEADDAGVYYCMQGLHSPLSFGQGTKLEIKR | 0.187 nM | 8.68e-05 s⁻¹ | 466000 M⁻¹ s⁻¹ |
| FJP05A03-H + GFmix_THS-L (antibody, V domains shown) VH: EVQLVESGGDLVKPGGSLRLSCVASGLPFRDYAMAWVRQAPGKGLQWLSLISGSGGKTYYADAVKGRFTISRDNAKNTLYLQMNSLRAEDTAVYYCAVDRLTKTIRPQYYGLWVWGQGTLVTVSS VL: DIVMTQTPLSLSVSPGETASISCRSSQSLTYSIGYNYLDWYMQKPGQSPQGLIYLGSKRASGVSDRFSGSGSGADFTLKISRVEADDAGVYYCMQGLHSPLGFGQGTKLEIKR | 0.169 nM | 8.32e-05 s⁻¹ | 492000 M⁻¹ s⁻¹ |
